Source: patent publication US20260184766A1

B1: SKM chimeric bovine-human IgG1 (ultralong CDR3) (antibody)
VH: QVQLRESGPSLVKPSQTLSLTCTASGFSLSDKAVGWVRQAPGKALEWLGSIDTGGNTGYNPGLKSRLSITKDNSKSQVSLSVSSVTTEDSATYYCTTVHQETLRSCPDGYIDNSGCTADWGCAALDCWRRRFGYHSTDPSHYTGATYIYTYSLHIDAWGQGLLVTVSS
VL: QAVLNQPSSVSGSLGQRVSITCSGSSSNVGNGYVSWYQLIPGSAPRTLIYGDTSRASGVPDRFSGSRSGNTATLTISSLQAEDEADYFCASAEDSSSNAVFGSGTTLTVL
B2: R4C1 chimeric bovine-human IgG1 (ultralong CDR3) (antibody)
VH: QVQLRESGPSLVKPSQTLSLTCTASGFSLSDKAVGWVRQAPGKPLEWLGSIDTAENTGYNPGLKSRLSITKDNSKSQVSLSVSSVTTEDSATYYCATVHQKTRKEKNCPDGYIYSSNTASGYDCGVWICRRVGSAFCSRTGDYTSPSEFDIYEFYVEGWGQGLLVTVSS
VL: B1 VL
B3: R2D9 chimeric bovine-human IgG1 (ultralong CDR3) (antibody)
VH: QVQLRESGPSLVKPSQTLSLTCTASGFSLSDKAIGWVRQAPGKALEWLGSIDTRGNTGYNPGLKSRLSITKDSSKSQVSLSVNSVTTEDSATYLCAIVQQITHKTCPNGYNWFDRCCSWDGTCGDGCCSNRAWPSGNGRADSSIGETYGYEFHVAAWGQGLLVTVSS
VL: B1 VL
B4: SKD chimeric bovine-human IgG1 (ultralong CDR3) (antibody)
VH: QVQLRESGPSLVKPSQTLSLTCTASGFSLSDKAVGWVRQAPGKALEWLGSIDTGGNTGYNPGLKSRLSITKDNSKSQVSLSVSSVTTEDSATYYCTTVHQRTSEKRSCPGGSSRRYPSGASCDVSGGACACYVSNCRGVLCPTLNEIVAYTYEWHVDAWGQGLLVTVSS
VL: B1 VL

Legend:
[1] = biological target: T1, SARS CoV-2 spike trimer protein from the parental Wuhan-Hu-1 isolate (recombinant stabilized extracellular domain) (SARS-CoV-2 (Wuhan-Hu-1)); test: ELISA, spike coated, chimeric IgG1; conditions: remark: other sources report otherwise
[2] = biological target: T1, SARS CoV-2 spike trimer protein from …; test: ELISA on coated recombinant stabilized spike protein, panel WT, OD 450; conditions: remark: other sources report otherwise
[3] = biological target: T1, SARS CoV-2 spike trimer protein from …; test: ELISA on coated spike protein, anti-human Fc-HRP, OD450; conditions: remark: other sources report otherwise
[4] = biological target: SARS-CoV-2 (antigen of the ELISA of FIG. 5E); test: ELISA on SARS-CoV-2 antigen (spike or RBD not stated), OD 450

Binder | EC50 [1] [nM] | EC50 (read off the curve) [2] [nM] | EC50 (read off the curve) [3] [nM] | EC50 (read off the curve) [4] [nM]
B1 | 0.19 | 0.2 |  | 
B2 | 0.2 | 0.3 | 0.03 | 
B3 |  |  |  | 0.03
B4 | 0.16 |  |  | 
